{
  "source": "IntAct's records for PubMed 18171471",
  "parents": {"B1": {"name": "Focal adhesion kinase 1 (Gallus gallus (Chicken)), Q00944 (parent)", "chain": "MAAAYLDPNLNHTPSSSAKTHLGTGMERSPGAMERVLKVFHYFENSSEPTTWASIIRHGDATDVRGIIQKIVDCHKVKNVACYGLRLSHLQSEEVHWLHLDMGVSNVREKFELAHPPEEWKYELRIRYLPKGFLNQFTEDKPTLNFFYQQVKNDYMLEIADQVDQEIALKLGCLEIRRSYGEMRGNALEKKSNYEVLEKDVGLRRFFPKSLLDSVKAKTLRKLIQQTFRQFANLNREESILKFFEILSPVYRFDKECFKCALGSSWIISVELAIGPEEGISYLTDKGANPTHLADFNQVQTIQYSNSEDKDRKGMLQLKIAGAPEPLTVTAPSLTIAENMADLIDGYCRLVNGATQSFIIRPQKEGERALPSIPKLANNEKQGVRSHTVSVSETDDYAEIIDEEDTYTMPSTRDYEIQRERIELGRCIGEGQFGDVHQGIYMSPENPAMAVAIKTCKNCTSDSVREKFLQEALTMRQFDHPHIVKLIGVITENPVWIIMELCTLGELRSFLQVRKFSLDLASLILYAYQLSTALAYLESKRFVHRDIAARNVLVSATDCVKLGDFGLSRYMEDSTYYKASKGKLPIKWMAPESINFRRFTSASDVWMFGVCMWEILMHGVKPFQGVKNNDVIGRIENGERLPMPPNCPPTLYSLMTKCWAYDPSRRPRFTELKAQLSTILEEEKLQQEERMRMESRRQVTVSWDSGGSDEAPPKPSRPGYPSPRSSEGFYPSPQHMVQPNHYQVSGYSGSHGIPAMAGSIYPGQASLLDQTDSWNHRPQEVSAWQPNMEDSGTLDVRGMGQVLPTHLMEERLIRQQQEMEEDQRWLEKEERFLVMKPDVRLSRGSIEREDGGLQGPAGNQHIYQPVGKPDHAAPPKKPPRPGAPHLGSLASLNSPVDSYNEGVKIKPQEISPPPTANLDRSNDKVYENVTGLVKAVIEMSSKIQPAPPEEYVPMVKEVGLALRTLLATVDESLPVLPASTHREIEMAQKLLNSDLAELINKMKLAQQYVMTSLQQEYKKQMLTAAHALAVDAKNLLDVIDQARLKMISQSRPH"}},
  "data": [
    {"variants_of": "B1", "conditions": "with paxi_chick PXN", "values": [
      {"variant": "I937A", "effect of a mutation on the interaction": "decreasing interaction"},
      {"variant": "E949A;K956A;R963A", "effect of a mutation on the interaction": "decreasing interaction"}
    ]}
  ]
}
